# According to the RNAGym collection of RNA variant scans (doi:10.7554/elife.80360):
# B1: HDV Ribozyme (parent)
# chain: GGCCGGCAUGGUCCCAGCCUCCUCGCUGGCGCCGGCUGGGCAACAUUCCGAGGGGACCGUCCCCUCGGUAAUGGCGAAUGGGACCCA
# Variants of: B1
# Experiment: self-cleavage, relative activity (ratio to wild type); higher = more cleavage; co-transcriptional
row,Variant,self-cleavage
1,U37G C57G,0.145
2,U37A G80C,0.163
3,G38A A83G,0.142
4,G38A A83C,0.151
5,C36U G50A,0.673
6,C36U G50C,0.612
7,G38C C64U,0.369
8,G35U G76C,0.62
9,G35U G76U,0.595
10,C36U U46G,0.504
11,G38A C62U,0.153
12,G38A C62G,0.298
13,U37A A83U,0.104
14,U37A A83G,0.115
15,U37A A83C,0.0378
16,G38C A43C,0.26
17,C36A C48A,0.259
18,C36A G59U,0.138
19,U37G U65A,0.101
20,C36G A71C,0.0475
21,C36G A71G,0.138
22,G38A C48G,0.148
23,U37C C48U,1.14
24,G35U G67C,0.41

row,Variant,self-cleavage
1,G35U G67A,0.506
2,G35U U72A,0.172
3,G38A A70C,0.177
4,G38A A70U,0.148
5,G38C A77U,0.128
6,G38C A77C,0.177
7,U37C U47A,0.864
8,C36U G53C,0.815
9,U37G A42C,0.308
10,U37G A42U,0
11,C36G G50U,0.101
12,G38C U65C,0.391
13,G38C U65G,0.142
14,U37A C84U,0.116
15,G38A C44G,0.0449
16,C36G C49A,0.138
17,U37A G76A,0.172
18,U37A G76C,0.203
19,U37G G39A,0.0811
20,G35U G39A,0.0906
21,G38C G53C,0.295
22,G38C G53A,0.313
23,G35U U47C,0.189
24,G38C G50U,0.157

row,Variant,self-cleavage
1,G38C G50A,0.188
2,U37A C57G,0.213
3,U37A G50A,0.0361
4,U37A C64A,0.0723
5,G38C C61G,0.219
6,G38C C61A,0.218
7,U37G C48G,0.111
8,G38A U69C,0.31
9,C36U A56U,0.845
10,C36U A45G,0.522
11,U37G U47G,0
12,C36A G82U,0.0839
13,C36G A87C,0.146
14,G35U G59U,0.53
15,C36U G59C,0.923
16,G38A C61G,0.138
17,C36U A71U,0.471
18,C36A U65G,0.394
19,G38C C41U,1.08
20,G38C C41A,0.612
21,C36G C62A,0.0791
22,C36A A56U,0.229
23,C36G A51G,0.151
24,U37C C61A,1.2

row,Variant,self-cleavage
1,U37C C61G,0.816
2,G38U A43G,0.208
3,U37A A70G,0.214
4,U37G G53C,0.145
5,U37A G82U,0.166
6,C36A G76C,0.241
7,C36A G68C,0.235
8,C36A G68U,0.157
9,C36G C41A,0.248
10,U37G G76A,0.185
11,C36A G39A,0.113
12,C36U G54C,0.872
13,G38A A71U,0.102
14,C36G C57U,0.128
15,U37G G82A,0.158
16,C36G G68U,0.0615
17,C36U G40C,0.0959
18,G35U C61A,0.428
19,C36U G73A,0.428
20,C36U G73U,0.0692
21,C36A G81U,0.0523
22,U37C G80A,0.267
23,U37C G80C,0.288
24,G35U U60G,0.285

row,Variant,self-cleavage
1,G35U G73C,0.185
2,U37C C41G,1.11
3,U37A A51U,0
4,G35U C86G,0.397
5,G35U C86U,0.464
6,G35U C86A,0.35
7,C36U G76A,0.697
8,G35U C62G,0.259
9,C36U C49G,0.607
10,C36U C49U,0.743
11,C36U U69C,0.801
12,U37A C61G,0.151
13,U37A C61U,0.277
14,G38A C85A,0.104
15,G38A C85U,0.128
16,C36A C84U,0.163
17,U37G,0.131
18,U37A,0.216
19,U37C,1.03
20,C36A U72G,0.0978
21,C36A U72A,0.277
22,C36A U72C,0.0405
23,G35U C58G,0.323
24,G35C G81U,0.0739

row,Variant,self-cleavage
1,U37G G67A,0.0692
2,U37G G73U,0.0923
3,C36U G80A,0.0923
4,C36U G80C,0.12
5,U37C C64A,0.831
6,U37A C44A,0.364
7,U37A C44U,0.0386
8,U37C G39A,0.0997
9,U37C G39C,0.177
10,U37A A45C,0.0707
11,U37A A45U,0.175
12,C36U G74A,0.205
13,C36U G74C,0.253
14,G38A C64U,0.225
15,G38A C64A,0.0678
16,U37A C41G,0.0723
17,U37C C66G,0.932
18,G38A C75A,0.115
19,U37C G67C,0.989
20,U37C G67U,0.974
21,C36G C86U,0.0437
22,U37C A43U,0.172
23,U37C G38C,0.237
24,C36U A87G,0.674

row,Variant,self-cleavage
1,G38C C49G,0.156
2,U37G A56G,0.0665
3,U37G C62G,0.0791
4,U37G G54U,0.135
5,U37G G54C,0.0594
6,G35C U46G,0.0831
7,U37C A42U,0.295
8,G38A G68U,0.18
9,G38A G68C,0.197
10,C36A A42C,0.0583
11,C36A A42G,0.113
12,C36U C48A,0.623
13,G35U A83U,0.145
14,C36U C66G,0.767
15,G35U A43C,0.208
16,U37C A78C,0.196
17,U37C A78G,0.475
18,U37C A78U,0.161
19,C36U G39C,0.119
20,G38A U65C,0.117
21,G38A U65G,0.181
22,G38A C84G,0.257
23,G38A C84U,0.109
